In experiment [1] the target is Fl–hRyR1(1975–1999)p: hRyR1(1975–1999)p with a 5,6-carboxyfluorescein moiety at the N-terminus (human).
Experiment [2] has as its target Fl–hRyR1(3614–3643)p: hRyR1(3614–3643)p with a 5,6-carboxyfluorescein moiety at the N-terminus (human).
For experiment [3], the target named is Fl–hRyR1(1975–1999)p: hRyR1(1975–1999)p with a 5,6-carboxyfluorescein moiety at the N-terminus (human). In words: fluorescence polarisation.

Bounds are passed on as bounds.

Chain of Fl–hRyR1(1975–1999)p: hRyR1(1975–1999)p with a 5,6-carboxyfluorescein moiety at the N-terminus (human) (P21817 1975-1999): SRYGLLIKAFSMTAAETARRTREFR
Chain of Fl–hRyR1(3614–3643)p: hRyR1(3614–3643)p with a 5,6-carboxyfluorescein moiety at the N-terminus (human) (P21817 3614-3643): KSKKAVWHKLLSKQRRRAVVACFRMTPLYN

Regarding “full-length mammalian calmodulin (CaM_(1–148)) (from UniProt P0DP23 1-149) (natural protein)”, the stoichiometry N in experiment [1] and in experiment [2] was 1 throughout. Further, the saturation at ~100 μM CaM in experiment [3] is over 85%.

For the origin of these results see article PMC4208696.
